Kd, dH and stoichiometry N data for two substances are collected here from PMC5462532.

The target of test [1] is UbcH7 (C17S, C86K, C137S)∼Ub conjugate (for ITC) (human) (UniProt P68036). Put plainly: ITC; 250-300 μM RING1 constructs in the syringe, 25-30 μM E2 or E2∼Ub in the cell; 293 K; 25 mM Hepes pH 7.5, 150 mM NaCl, 0.5 mM TCEP; 1:1 fit; repeated twice, averages. For orientation: Isothermal titration calorimetry measures the heat released or taken up as one component is titrated into another.

The target of test [2] is UbcH7 (wild type, for ITC) (human) (UniProt P68036). The description is as above.
Test [3] has as its target HHARI of the HHARI/UbcH7 complex analysed by SEC-MALS (human) (UniProt Q9Y4X5). Description: SEC-MALS; HHARI/UbcH7 complex at 1.5 mg/ml in 25 mM MOPS, 150 mM NaCl, pH 7.5; Superose 6 Increase 3.2/300; room temperature. Background: In gel filtration, larger molecules generally elute earlier.

What is called Kd is the concentration at which binding is half-saturated. A low value points to a tighter complex. As a reminder, the stoichiometry N is a count of units in the complex or per binding partner.

In test [1], “HHARI RING1 (aa 177-270), wild type (from UniProt Q9Y4X5 177-270) (domain or fragment)” registered a Kd of 116 nM, a dH of 3.7 kcal/mol and a stoichiometry N of 1. Also, in test [2], the Kd was found to be 294 nM, the dH stood at 4.3 kcal/mol and the stoichiometry N is 1.

Turning to “UbcH7 of the HHARI/UbcH7 complex analysed by SEC-MALS (from UniProt P68036 1-154) (enzyme)”, the stoichiometry N in test [3] amounted to 1.
